Assay results as given in article PMC4444369 (Journal of molecular biology, 2014).

Target: APC3 (wild-type, untagged) (human, UniProt P30260-2 1-830)
Test: SEC

binding result: binds
B1: APC16^C (Strep tag removed by TEV) (domain or fragment)
chain: not shown
